Laboratory results as given in the supplement of paper PMC9112550, “Optimization of the antimicrobial peptide Bac7 by deep mutational scanning” (BMC Biology, 2022).

Each sequence was assayed on Escherichia coli TOP10 (assay: shrunken log2 fold change of peptide-encoding DNA abundance (4.5 h post-induction vs induction); higher = less antimicrobial activity (less host growth inhibition)). Settings: time post-induction: 4.5 h; library: site-saturation at positions 5, 18, 19, 20.
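Also: peptides expressed intracellularly from a pBAD plasmid library in pooled LB shake-flask culture, induced with 0.3% L-arabinose, DNA abundance read by NGS, three biological replicates, DESeq2 with apeglm shrinkage.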

Row | Sequence | shrunken log2 fold change
1 | RRIRCRPPRLPRPRPRPTFNPRP | -0.525
2 | RRIRPRPPRLPRPRPRPLGDPRP | 0.279
3 | RRIRSRPPRLPRPRPRPCYTPRP | -0.0751
4 | RRIRQRPPRLPRPRPRPTMHPRP | -0.0393
5 | RRIRARPPRLPRPRPRPKEVPRP | -0.0076
6 | RRIRWRPPRLPRPRPRPVEVPRP | -0.0825
7 | RRIRSRPPRLPRPRPRPYELPRP | 0.093
8 | RRIRMRPPRLPRPRPRPWQEPRP | -0.107
9 | RRIRARPPRLPRPRPRPTATPRP | 1.2
10 | RRIRQRPPRLPRPRPRPLRHPRP | 0.323
11 | RRIRGRPPRLPRPRPRPMCQPRP | 0.62
12 | RRIRTRPPRLPRPRPRPRSHPRP | 0.109
13 | RRIRMRPPRLPRPRPRPYELPRP | 0.0224
14 | RRIRCRPPRLPRPRPRPIKKPRP | -0.0497
15 | RRIRRRPPRLPRPRPRPGCIPRP | 0.0498
16 | RRIRHRPPRLPRPRPRPGDRPRP | 2.17
17 | RRIRDRPPRLPRPRPRPHREPRP | 0.0506
18 | RRIRFRPPRLPRPRPRPQNFPRP | 0.0645
19 | RRIRKRPPRLPRPRPRPDKMPRP | -0.48
20 | RRIRERPPRLPRPRPRPCSHPRP | -0.0193
21 | RRIRDRPPRLPRPRPRPKHKPRP | -0.173
22 | RRIRIRPPRLPRPRPRPYWKPRP | -0.0289

Row | Sequence | shrunken log2 fold change
23 | RRIRSRPPRLPRPRPRPPDDPRP | 0.488
24 | RRIRMRPPRLPRPRPRPDDFPRP | 0.938
25 | RRIRIRPPRLPRPRPRPWREPRP | 0.158
26 | RRIRIRPPRLPRPRPRPYIDPRP | -0.484
27 | RRIRARPPRLPRPRPRPVEEPRP | 1.03
28 | RRIRIRPPRLPRPRPRPPGWPRP | 0.527
29 | RRIRFRPPRLPRPRPRPCTMPRP | -0.462
30 | RRIRGRPPRLPRPRPRPGSVPRP | 0.484
31 | RRIRKRPPRLPRPRPRPKEMPRP | 0.682
32 | RRIRGRPPRLPRPRPRPPMPPRP | 0.659
33 | RRIRERPPRLPRPRPRPIHPPRP | -0.239
34 | RRIRRRPPRLPRPRPRPDDQPRP | 0.167
35 | RRIRKRPPRLPRPRPRPYWLPRP | -0.229
36 | RRIRTRPPRLPRPRPRPVMIPRP | -0.126
37 | RRIRERPPRLPRPRPRPMWYPRP | -0.379
38 | RRIRSRPPRLPRPRPRPGNDPRP | 0.111
39 | RRIRERPPRLPRPRPRPWNHPRP | -1.48
40 | RRIRIRPPRLPRPRPRPIWKPRP | -0.0131
41 | RRIRFRPPRLPRPRPRPLWVPRP | 0.0127
42 | RRIRTRPPRLPRPRPRPWASPRP | -0.068
43 | RRIRNRPPRLPRPRPRPQRHPRP | -0.0566
44 | RRIRARPPRLPRPRPRPAREPRP | 0.835

Row | Sequence | shrunken log2 fold change
45 | RRIRKRPPRLPRPRPRPLHSPRP | 0.0787
46 | RRIRWRPPRLPRPRPRPDCLPRP | 0.166
47 | RRIRCRPPRLPRPRPRPLYHPRP | -0.695
48 | RRIRVRPPRLPRPRPRPYTEPRP | -0.42
49 | RRIRMRPPRLPRPRPRPDVAPRP | 0.0335
50 | RRIRKRPPRLPRPRPRPMCHPRP | -0.0182
51 | RRIRMRPPRLPRPRPRPNPLPRP | 0.567
52 | RRIRKRPPRLPRPRPRPTLQPRP | 0.594
53 | RRIRARPPRLPRPRPRPILCPRP | 0.165
54 | RRIRKRPPRLPRPRPRPFDAPRP | 0.337
55 | RRIRDRPPRLPRPRPRPILLPRP | -0.28
56 | RRIRLRPPRLPRPRPRPLIQPRP | -0.247
57 | RRIRMRPPRLPRPRPRPAYGPRP | -0.00861
58 | RRIRERPPRLPRPRPRPSVNPRP | -0.959
59 | RRIRDRPPRLPRPRPRPAGHPRP | 0.261
60 | RRIRVRPPRLPRPRPRPHSYPRP | -0.262
61 | RRIRPRPPRLPRPRPRPHDGPRP | -0.0292
62 | RRIRKRPPRLPRPRPRPACVPRP | 0.735
63 | RRIRWRPPRLPRPRPRPEITPRP | 0.437
64 | RRIRSRPPRLPRPRPRPAAFPRP | 0.29
65 | RRIRMRPPRLPRPRPRPEIKPRP | 3.3
66 | RRIRNRPPRLPRPRPRPQDIPRP | -0.252

Row | Sequence | shrunken log2 fold change
67 | RRIRLRPPRLPRPRPRPNDEPRP | 0.0316
68 | RRIRTRPPRLPRPRPRPGAIPRP | -0.0669
69 | RRIRLRPPRLPRPRPRPRSDPRP | 0.126
70 | RRIRGRPPRLPRPRPRPMRGPRP | 1.09
71 | RRIRVRPPRLPRPRPRPDHNPRP | -0.488
72 | RRIRHRPPRLPRPRPRPANNPRP | -0.613
73 | RRIRVRPPRLPRPRPRPIPLPRP | -0.107
74 | RRIRGRPPRLPRPRPRPNILPRP | 0.199
75 | RRIRRRPPRLPRPRPRPPGAPRP | 0.972
76 | RRIRNRPPRLPRPRPRPVRRPRP | 0.112
77 | RRIRFRPPRLPRPRPRPMGVPRP | -0.457
78 | RRIRARPPRLPRPRPRPAYCPRP | -0.00541
79 | RRIRLRPPRLPRPRPRPIRGPRP | -0.0599
80 | RRIRSRPPRLPRPRPRPHDEPRP | 0.0683
81 | RRIRIRPPRLPRPRPRPIWNPRP | -0.263
82 | RRIRCRPPRLPRPRPRPDQGPRP | -0.143
83 | RRIRPRPPRLPRPRPRPDYRPRP | -0.321
84 | RRIRWRPPRLPRPRPRPRITPRP | 0.00862
85 | RRIRPRPPRLPRPRPRPREDPRP | 0.134
86 | RRIRIRPPRLPRPRPRPIECPRP | -0.314
87 | RRIRMRPPRLPRPRPRPSPNPRP | 0.0416
88 | RRIRQRPPRLPRPRPRPKGHPRP | -0.139

Row | Sequence | shrunken log2 fold change
89 | RRIRGRPPRLPRPRPRPFNLPRP | -0.643
90 | RRIRSRPPRLPRPRPRPYRYPRP | -0.262
91 | RRIRFRPPRLPRPRPRPRPVPRP | 0.633
92 | RRIRNRPPRLPRPRPRPYAIPRP | -0.105
93 | RRIRGRPPRLPRPRPRPITEPRP | 0.000184
94 | RRIRWRPPRLPRPRPRPFHQPRP | -0.259
95 | RRIRNRPPRLPRPRPRPPEAPRP | 0.0101
96 | RRIRFRPPRLPRPRPRPSHIPRP | -0.216
97 | RRIRARPPRLPRPRPRPISTPRP | -0.295
98 | RRIRIRPPRLPRPRPRPPKMPRP | -0.0476
99 | RRIRKRPPRLPRPRPRPTEAPRP | 0.77
100 | RRIRTRPPRLPRPRPRPFRVPRP | -0.108
101 | RRIRFRPPRLPRPRPRPDWTPRP | 0.039
102 | RRIRIRPPRLPRPRPRPHPSPRP | -0.488
103 | RRIRDRPPRLPRPRPRPNKYPRP | -0.828
104 | RRIRQRPPRLPRPRPRPEGDPRP | 0.00223
105 | RRIRYRPPRLPRPRPRPYAIPRP | -0.00088
106 | RRIRIRPPRLPRPRPRPEPNPRP | -0.0783
107 | RRIRFRPPRLPRPRPRPAKGPRP | 0.141
108 | RRIRTRPPRLPRPRPRPAQGPRP | 0.228
109 | RRIRERPPRLPRPRPRPMYLPRP | -1.99
